Data from PMC10042849.

Target: EndoS2_(E186L), catalytically inactive EndoS2 (Streptococcus pyogenes (serotype M49)) (UniProt T1WGN1)
Assay: NMR titration; methyl-TROSY (1H,13C HMQC) spectra of MILV methyl-labelled enzyme (45-128 µM) titrated with ligand; 2D lineshape fitting with TITAN, two-state binding model; 20 mM Tris-d11 pH* 7.50, 50 mM NaCl in D2O; 600 MHz, 298 K

Substance: Fc region of the IgG1 monoclonal antibody Rituximab (Fc-Rituximab) (from UniProt P01857 1-328) (domain or fragment)
- Kd: 3.1 µM
- koff: 4 s⁻¹
- kon: 1.3e+06 M⁻¹ s⁻¹
